Paper PMC6040593 (Molecular cell, 2017)

Legend:
[1] = molecular target: T1, soluble region of S. cerevisiae Msp1 (Δ1-32), wild type (S. cerevisiae), P28737; assay: SEC + SEC-MALS; conditions: remark: other sources report otherwise
T1 chain: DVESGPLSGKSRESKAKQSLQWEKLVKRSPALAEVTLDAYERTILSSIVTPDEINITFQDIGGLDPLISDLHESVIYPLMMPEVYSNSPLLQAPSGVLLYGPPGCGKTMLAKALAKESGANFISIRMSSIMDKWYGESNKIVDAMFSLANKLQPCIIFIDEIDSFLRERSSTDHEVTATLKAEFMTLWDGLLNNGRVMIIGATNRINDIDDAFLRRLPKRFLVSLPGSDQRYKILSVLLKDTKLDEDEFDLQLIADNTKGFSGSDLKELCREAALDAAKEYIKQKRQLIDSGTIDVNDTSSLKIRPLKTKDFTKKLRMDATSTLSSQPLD

[2] = molecular target: T1, soluble region of S. cerevisiae Msp1 …; assay: SEC + SEC-MALS; conditions: remark: other sources report otherwise
SEC = molecular target: the molecule itself; assay: SEC
SEC + SEC-MALS = molecular target: the molecule itself; assay: SEC + SEC-MALS

B1: soluble region of S. cerevisiae Msp1 (Δ1-32), wild type, P28737 33-362 (domain or fragment)
chain: DVESGPLSGKSRESKAKQSLQWEKLVKRSPALAEVTLDAYERTILSSIVTPDEINITFQDIGGLDPLISDLHESVIYPLMMPEVYSNSPLLQAPSGVLLYGPPGCGKTMLAKALAKESGANFISIRMSSIMDKWYGESNKIVDAMFSLANKLQPCIIFIDEIDSFLRERSSTDHEVTATLKAEFMTLWDGLLNNGRVMIIGATNRINDIDDAFLRRLPKRFLVSLPGSDQRYKILSVLLKDTKLDEDEFDLQLIADNTKGFSGSDLKELCREAALDAAKEYIKQKRQLIDSGTIDVNDTSSLKIRPLKTKDFTKKLRMDATSTLSSQPLD
stoichiometry N [1]: 6 | stoichiometry N [2]: 2

B2: soluble (Δ1-32) S. cerevisiae Msp1 E193Q W166A/Y167A (domain or fragment, UniProt P28737 33-362, looked up)
chain: DVESGPLSGKSRESKAKQSLQWEKLVKRSPALAEVTLDAYERTILSSIVTPDEINITFQDIGGLDPLISDLHESVIYPLMMPEVYSNSPLLQAPSGVLLYGPPGCGKTMLAKALAKESGANFISIRMSSIMDKAAGESNKIVDAMFSLANKLQPCIIFIDQIDSFLRERSSTDHEVTATLKAEFMTLWDGLLNNGRVMIIGATNRINDIDDAFLRRLPKRFLVSLPGSDQRYKILSVLLKDTKLDEDEFDLQLIADNTKGFSGSDLKELCREAALDAAKEYIKQKRQLIDSGTIDVNDTSSLKIRPLKTKDFTKKLRMDATSTLSSQPLD
stoichiometry N (SEC): 6

B3: soluble (Δ1-32) S. cerevisiae Msp1 E193Q H206A/E207A (domain or fragment, UniProt P28737 33-362, looked up)
chain: DVESGPLSGKSRESKAKQSLQWEKLVKRSPALAEVTLDAYERTILSSIVTPDEINITFQDIGGLDPLISDLHESVIYPLMMPEVYSNSPLLQAPSGVLLYGPPGCGKTMLAKALAKESGANFISIRMSSIMDKWYGESNKIVDAMFSLANKLQPCIIFIDQIDSFLRERSSTDAAVTATLKAEFMTLWDGLLNNGRVMIIGATNRINDIDDAFLRRLPKRFLVSLPGSDQRYKILSVLLKDTKLDEDEFDLQLIADNTKGFSGSDLKELCREAALDAAKEYIKQKRQLIDSGTIDVNDTSSLKIRPLKTKDFTKKLRMDATSTLSSQPLD
stoichiometry N (SEC): 6

B4: soluble (Δ1-32) S. cerevisiae Msp1 E193Q (domain or fragment, UniProt P28737 33-362, looked up)
chain: DVESGPLSGKSRESKAKQSLQWEKLVKRSPALAEVTLDAYERTILSSIVTPDEINITFQDIGGLDPLISDLHESVIYPLMMPEVYSNSPLLQAPSGVLLYGPPGCGKTMLAKALAKESGANFISIRMSSIMDKWYGESNKIVDAMFSLANKLQPCIIFIDQIDSFLRERSSTDHEVTATLKAEFMTLWDGLLNNGRVMIIGATNRINDIDDAFLRRLPKRFLVSLPGSDQRYKILSVLLKDTKLDEDEFDLQLIADNTKGFSGSDLKELCREAALDAAKEYIKQKRQLIDSGTIDVNDTSSLKIRPLKTKDFTKKLRMDATSTLSSQPLD
stoichiometry N (SEC + SEC-MALS): 6
